Target: microtubules (Example 3)

B1: Drosophila kinesin heavy chain fragment containing amino acids 5-351 with a C-terminal hexahistidine tag (protein)
chain: REIPAEDSIKVVCRFRPLNDSEEKAGSKFVVKFPNNVEENCISIAGKVYLFDKVFKPNASQEKVYNEAAKSIVTDVLAGYNGTIFAYGQTSSGKTHTMEGVIGDSVKQGIIPRIVNDIFNHIYAMEVNLEFHIKVSYYEIYMDKIRDLLDVSKVNLSVHEDKNRVPYVKGATERFVSSPEDVFEVIEEGKSNRHIAVTNMNEHSSRSHSVFLINVKQENLENQKKLSGKLYLVDLAGSEKVSKTGAEGTVLDEAKNINKSLSALGNVISALADGNKTHIPYRDSKLTRILQESLGGNARTTIVICCSPASFNESETKSTLDFGRRAKTVKNVVCVNEELTAEEWKRRHHHHHH
In the case of B1, the “stimulation of the basal ATPase rate” value is reported as 1,000-fold stimulation of the basal ATPase rate.
